koff, kon and Kd data for 2 molecules are collected here from patent US20070264253A1 (Eli Lilly, published 2007).

Experiment [1] has as its target T1, EGFR-AP fusion protein (UniProt P00533 25-645).
T1 construct: Immobilised on the BIAcore sensor chip; Neither the species nor the residues of the EGFR part are stated
Put plainly: BIAcore SPR, EGFR-AP immobilised on the chip.
Experimental: (§1) Sensorgrams were obtained at each concentration and were analyzed with BIA Evaluation 2.0, a program to determine the rate constants, kₒₙ and koff. The affinity constant, Kd, was calculated from the ratio of rate constants, koff/kₒₙ.

Experiment [2] deals with T1, EGFR-AP fusion protein. Put plainly: BIAcore SPR, EGFR-AP immobilised on the chip; koff/kon.
Experimental: as §1

B1: IMC-11F8 Fab (Fab, V domains shown)
VH: QVQLQESGPGLVKPSQTLSLTCTVSGGSISSGDYYWSWIRQPPGKGLEWIGYIYYSGSTDYNPSLKSRVTMSVDTSKNQFSLKVNSVTAADTAVYYCARVSIFGVGTFDYWGQGTLVTVSS
VL: EIVMTQSPATLSLSPGERATLSCRASQSVSSYLAWYQQKPGQAPRLLIYDASNRATGIPARFSGSGSGTDFTLTISSLEPEDFAVYYCHQYGSTPLTFGGGTKAEIK
On to B1, for which, in the experiment with EGFR-AP fusion protein [1], the off-rate (koff) worked out at 0.00367 s⁻¹ and the kon was determined as 2.29e+06 M⁻¹ s⁻¹. In the experiment with EGFR-AP fusion protein [2], binding was characterised by a dissociation constant (Kd) of 1.78 nM.

B2: IMC-11F8 (full human IgG1 anti-EGFR antibody) (antibody, V domains shown)
VH: QVQLQESGPGLVKPSQTLSLTCTVSGGSISSGDYYWSWIRQPPGKGLEWIGYIYYSGSTDYNPSLKSRVTMSVDTSKNQFSLKVNSVTAADTAVYYCARVSIFGVGTFDYWGQGTLVTVSS
VL: EIVMTQSPATLSLSPGERATLSCRASQSVSSYLAWYQQKPGQAPRLLIYDASNRATGIPARFSGSGSGTDFTLTISSLEPEDFAVYYCHQYGSTPLTFGGGTKAEIK
notes: also called IMC-C11F8; 11F8 monoclonal antibody
In the experiment with EGFR-AP fusion protein [1], B2 yielded a koff of 0.00058 s⁻¹ and a kon of 1.86e+06 M⁻¹ s⁻¹. Further, the Kd in the experiment with EGFR-AP fusion protein [2] was 0.32 nM.
